Data on two molecules can be found in publication PMC8441365, “SCF^Fbxw5 targets kinesin‐13 proteins to facilitate ciliogenesis” (The EMBO Journal, 2021).

The labels stand for the following.
B1: Fbxw5/Skp1 sub-complex (complex, human)
chain 1: MDEGGTPLLPDSLVYQIFLSLGPADVLAAGLVCRQWQAVSRDEFLWREQFYRYYQVARDVPRHPAAMSWYEEFQRLYDTVPCVEVQTLREHTDQVLHLSFSHSGYQFASCSKDCTVKIWSNDLTISLLHSADMRPYNWSYTQFSQFNKDDSLLLASGVFLGPHNSSSGEIAVISLDSFALLSRVRNKPYDVFGCWLTETSLISGNLHRIGDITSCSVLWLNNAFQDVESENVNVVKRLFKIQNLNASTVRTVMVADCSRFDSPDLLLEAGDPATSPCRIFDLGSDNEEVVAGPAPAHAKEGLRHFLDRVLEGRAQPQLSERMLETKVAELLAQGHTKPPERSATGAKSKYLIFTTGCLTYSPHQIGIKQILPHQMTTAGPVLGEGRGSDAFFDALDHVIDIHGHIIGMGLSPDNRYLYVNSRAWPNGAVVADPMQPPPIAEEIDLLVFDLKTMREVRRALRAHRAYTPNDECFFIFLDVSRDFVASGAEDRHGYIWDRHYNICLARLRHEDVVNSVVFSPQEQELLLTASDDATIKAWRSPRTMRVLQAPRPRPRTFFSWLASQRR
chain 2: MPSIKLQSSDGEIFEVDVEIAKQSVTIKTMLEDLGMDPVPLPNVNAAILKKVIQWCTHHKDDPPDDIPVWDQEFLKVDQGTLFELILAANYLDIKGLLDVTCKTVANMIKGKTPEEIRKTFNIKNDFTEEEEAQVRKENQWCEEK
notes: Fbxw5, human; Skp1, human, with deletion of two loops (aa 38-43 and 71-82), plasmid pFastBac1-Skp1ΔΔ; pFastBac1-Skp1ΔΔ is the Skp1 baculovirus plasmid that the methods describe; source: Sf21, co-infected with both baculoviruses, purified (Ni-NTA, Superdex 200); not shown: His tag (from the Ni-NTA purification and precipitation)

Test [1] has as its target T1, MCAK (purified from Sf21 cells) (human, UniProt Q99661 1-725).
T1 construct: Kif2c/MCAK, human; also called Kif2c; source: Sf21, purified (Ni-NTA, TEV cleavage, Superdex 200)
T1 sequence (looked up): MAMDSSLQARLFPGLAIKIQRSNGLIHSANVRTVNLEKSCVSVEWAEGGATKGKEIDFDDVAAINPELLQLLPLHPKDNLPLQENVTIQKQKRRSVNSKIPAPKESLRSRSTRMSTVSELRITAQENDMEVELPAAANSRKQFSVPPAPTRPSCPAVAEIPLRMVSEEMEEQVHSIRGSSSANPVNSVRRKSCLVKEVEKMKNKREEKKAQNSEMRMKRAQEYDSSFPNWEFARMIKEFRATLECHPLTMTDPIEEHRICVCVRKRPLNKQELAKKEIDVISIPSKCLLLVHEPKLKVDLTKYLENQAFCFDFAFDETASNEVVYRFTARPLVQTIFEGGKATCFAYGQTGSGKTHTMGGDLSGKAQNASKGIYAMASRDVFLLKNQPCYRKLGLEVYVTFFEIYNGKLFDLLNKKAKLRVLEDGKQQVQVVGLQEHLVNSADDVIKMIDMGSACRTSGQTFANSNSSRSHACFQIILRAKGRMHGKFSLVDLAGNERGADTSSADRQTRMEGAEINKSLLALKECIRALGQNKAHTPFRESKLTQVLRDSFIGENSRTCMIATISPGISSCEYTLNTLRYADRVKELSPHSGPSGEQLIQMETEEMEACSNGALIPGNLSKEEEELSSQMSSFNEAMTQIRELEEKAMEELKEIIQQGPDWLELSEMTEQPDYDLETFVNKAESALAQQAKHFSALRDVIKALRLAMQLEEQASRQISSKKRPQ
Description: pull-down; purified proteins from Sf21 cells, 5-fold molar excess of prey over Fbxw5/Skp1 bait, mixed with competing E. coli lysate in PD buffer (20 mM HEPES pH 7.3, 110 mM K-acetate, 300 mM NaCl, 20 mM imidazole, 0.1% NP-40), precipitated via Ni-NTA agarose, SDS-PAGE. The note with it: both partners purified.

The test “Fbxw5/Skp1 sub-complex” deals with B1. The description is as above. Particulars: both partners purified.

Consider B1, for which the binding result in test [1] is “binds”.

B2: Kif2a (purified from Sf21 cells) (natural protein, human, UniProt O00139-1 1-679, looked up)
chain: MVTSLNEDNESVTVEWIENGDTKGKEIDLESIFSLNPDLVPDEEIEPSPETPPPPASSAKVNKIVKNRRTVASIKNDPPSRDNRVVGSARARPSQFPEQSSSAQQNGSVSDISPVQAAKKEFGPPSRRKSNCVKEVEKLQEKREKRRLQQQELREKRAQDVDATNPNYEIMCMIRDFRGSLDYRPLTTADPIDEHRICVCVRKRPLNKKETQMKDLDVITIPSKDVVMVHEPKQKVDLTRYLENQTFRFDYAFDDSAPNEMVYRFTARPLVETIFERGMATCFAYGQTGSGKTHTMGGDFSGKNQDCSKGIYALAARDVFLMLKKPNYKKLELQVYATFFEIYSGKVFDLLNRKTKLRVLEDGKQQVQVVGLQEREVKCVEDVLKLIDIGNSCRTSGQTSANAHSSRSHAVFQIILRRKGKLHGKFSLIDLAGNERGADTSSADRQTRLEGAEINKSLLALKECIRALGRNKPHTPFRASKLTQVLRDSFIGENSRTCMIATISPGMASCENTLNTLRYANRVKELTVDPTAAGDVRPIMHHPPNQIDDLETQWGVGSSPQRDDLKLLCEQNEEEVSPQLFTFHEAVSQMVEMEEQVVEDHRAVFQESIRWLEDEKALLEMTEEVDYDVDSYATQLEAILEQKIDILTELRDKVKSFRAALQEEEQASKQINPKRPRAL
notes: source: Sf21, purified (Ni-NTA, TEV cleavage, Superdex 200)
As for B2, the binding result with Fbxw5/Skp1 sub-complex is listed as “binds”.
